This is an account of results in patent US7888372B2, “Compositions and methods for modulating bone mineral deposition” (National Institutes of Health (NIH), priority 2001, dated 2011).

One test deals with TNAP-/- mice. As to the kind of experiment: Administration of exogenous pyridoxal HCl to TNAP-/- mice. Format: in vivo, mouse. An excerpt:
At the time that we were developing the TNAP knock-out mice, Waymire et al. (Nature Genet. 11:45-51, 1995) independently reported the production of TNAP knock-out mice. […] These studies provided support to the hypothesis, set forth by Michael P. Whyte in his studies of human hypophosphatasia, that pyridoxal-5′-phosphate (vitamin B6) might be a natural substrate of TNAP. The rationale for this hypothesis is that pyridoxal-5′-phosphate cannot easily traverse biological membranes but that the related, more hydrophobic derivatives, pyridoxal and pyridoxamine can do so with much better kinetics. Thus, the presumption is that the cells that are deficient in TNAP cannot dephosphorylate pyridoxal-5′-phosphate on the outside of the cells leading to an intracellular deficiency of Vitamin B6 (Whyte, Endocrine Rev. 15:439-461, 1994). […] Control mice fed a vitamin B6-depleted diet developed epileptic seizures indistinguishable from those observed in TNAP−/− mice, abnormal apoptosis in the thymus and thinning of the nerve roots.

The test system of test [1] is wild-type osteoblastic cells. The experiment in a line: Predicted effect of factors expressed or delivered on PPi and mRNA expression. Type of test: cell-based, mouse. An excerpt: In order to test the hypothesis that PPi itself represents the signaling molecule that influences the transcription of the TNAP, PC-1 and ANK genes, we examine the levels of TNAP, PC-1 and ANK in calvarial tissue and osteoblasts from the mutant mouse lines and in the rescued mouse strains and by measure mRNA for TNAP, PC-1 and ANK by Northern blot analysis. Subsequently, cells from the different mutant strains and rescued mice are exposed to medium with different concentrations of PPi, or non-hydrolyzable analogues (phosphocitrate and the biphosphonate etidronate), for various time points and tested for changes in mRNA levels of the three genes. In addition, in vitro cytoplasmic and nuclear microinjection of PPi and analogues into osteoblastic cells are performed to examine the effect of intracellular PPi on these same genes. Measurements of mRNA changes are monitored by real-time RT-PCR using an ABI 7700 Sequence Detection system to facilitate these measurements.
These evaluations are done on osteoblastic cells from the different mutant mice and cross-bred strains with or without rescue of the deficient molecule after specifically transfecting the respective cDNAs back into the deficient cells. As a control for the transfections, we employ mutant enzyme-deficient PC-1 (Johnson et al., J. Bone Miner. Res. 14:883-892, 1999; Johnson et al., Arthritis Rheum. 42:1986-1997, 1999), mutant ANK (Ho et al., Science 289:265-270, 2000), and mutant enzyme-deficient TNAP (Wennberg et al., J. Bone Mineral Res., 2000). The table summarizes the experiments to be performed and the results that are expected.

The next test concerns TNAP ko osteoblasts. As to the kind of experiment: Mineralization of bone nodules in primary TNAP ko osteoblast cultures (von Kossa). Type of test: cell-based, mouse. To be noted: added to the ko osteoblast culture medium. The procedure: Primary cultures of osteoblasts were isolated from calvariae of 1-4 day old pups that were hybrids of C57Bl/6×129/J mouse strains with wild-type, heterozygote and homozygote TNAP null genotypes. Isolation was performed by a slightly modified version of the time sequential collagenase technique described by Boonekamp et al. (Proc. Kon. Ned. Akad. Wet. B87:371-382, 1984). In brief, calvariae of the same genotype were pooled and three 10 minute incubations in 4 mM EDTA, 137 mM NaCl, 2.7 mM KCl, 3 mM NaH2PO4, pH 7.2, were performed, followed by seven 10 minute digestions in EDTA-free buffer, containing 180 units/ml collagenase type II (Worthington Biochemical Corporation, Lakewood, N.J.). All isolations were performed at 37° C. in a shaking water bath. The last five collagenase digestions, containing an enriched cell population of osteoblastic phenotype, were pooled and seeded at 4×10^4 cells/cm^2 in αMEM (Gibco BRL, Grand Island, N.Y.), containing 10% heat-inactivated FCS, penicillin (50 U/ml) and streptomycin ([…]).
To study mineralization, we used conditions under which we observed that osteoblasts normally formed von Kossa stain positive and alizarin red positive nodules at 7-10 days in culture. In brief, primary calvarial osteoblasts were cultured in complete αMEM media as described above, supplemented with β-glycerophosphate (10 mM) every third day and L-ascorbic acid (50 μg/ml) daily. MC3T3-E1 cells (Johnson et al., J. Bone Min. Res. 14:883-892, 1999) were maintained in the same medium, and for each experiment were plated at 80% confluence (1×10^6 cells in a 10 cm tissue-culture plastic dish in 5 ml) and received β-glycerophosphate and L-ascorbic acid as for primary osteoblasts above.
To evaluate the ability of primary osteoblasts to form and mineralize bone nodules in vitro, wild-type (wt), heterozygous and knock-out (ko) osteoblasts were cultured in media supplemented with ascorbic acid, using β-glycerophosphate as phosphate source. […] The extent of bone mineral deposition in these cultures was confirmed by quantifications of deposited calcium. […]

For the molecule `Cc1ncc(CO)c(C=O)c1O.Cl` [pyridoxal HCl], in the test on TNAP-/- mice, the episodes of apnea entry was “episodes of apnea ceased”; the “hypomineralization and accumulation of osteoid” value is “continued to worsen with age”; the life span entry was “increased the life span”; the “myelinization of lumbar nerve roots” value is recorded as “improved”. Moreover, in the test with TNAP-/- mice, the “onset of epileptic attacks” value is given as “delayed the onset of epileptic attacks”.

Consider “ANK: factor expressed in wild-type osteoblastic cells by transfecting the cDNA (Table 1)”, for which, in test [1], the “Predicted effect on PPi, Extracellular” value is “⇑”; the “Predicted effect on PPi, Intracellular” value is recorded as “↓”; the “Predicted effect on mRNA expression, ANK” value is “↓”; the “Predicted effect on mRNA expression, TNAP” value (“Predicted effect … TNAP” below) was “⇑”.

B1: iPPiase: inorganic pyrophosphatase, factor expressed in wild-type osteoblastic cells (Table 1) (protein, UniProt Q15181 2-289, looked up)
Inorganic pyrophosphatase: SGFSTEERAAPFSLEYRVFLKNEKGQYISPFHDIPIYADKDVFHMVVEVPRWSNAKMEIATKDPLNPIKQDVKKGKLRYVANLFPYKGYIWNYGAIPQTWEDPGHNDKHTGCCGDNDPIDVCEIGSKVCARGEIIGVKVLGILAMIDEGETDWKVIAINVDDPDAANYNDINDVKRLKPGYLEATVDWFRRYKVPDGKPENEFAFNAEFKDKDFAIDIIKSTHDHWKALVTKKTNGKGISCMNTTLSESPFKCDPDAARAIVDALPPPCESACTVPTDVDKWFHHQKN
As to B1, in test [1], the “Predicted effect on PPi, Extracellular” value is “=”; the “Predicted effect on PPi, Intracellular” value is on record as “↓”; the “Predicted effect on mRNA expression, ANK” value was “⇑”; the “Predicted effect on mRNA expression, PC-1” value (shortened to “Predicted effect … PC-1”) is listed as “⇑”. Further, in test [1], the “Predicted effect … TNAP” value is “↓”.

B2: PC-1: factor expressed in wild-type osteoblastic cells by transfecting the cDNA (Table 1) (protein)
chain: MERDGDQAGHGPRHGSAGNGRELESPAAASLLAPMDLGEEPLEKAERARPAKDPNTYKVLSLVLSVCVLTTILGCIFGLKPSCAKEVKSCKGRCFERTFSNCRCDAACVSLGNCCLDFQETCVEPTHIWTCNKFRCGEKRLSRFVCSCADDCKTHNDCCINYSSVCQDKKSWVEETCESIDTPECPAEFESPPTLLFSLDGFRAEYLHTWGGLLPVISKLKNCGTYTKNMRPMYPTKTFPNHYSIVTGLYPESHGIIDNKMYDPKMNASFSLKSKEKFNPLWYKGQPIWVTANHQEVKSGTYFWPGSDVEIDGILPDIYKVYNGSVPFEERILAVLEWLQLPSHERPHFYTLYLEEPDSSGHSHGPVSSEVIKALQKVDRLVGMLMDGLKDLGLDKCLNLILISDHGMEQGSCKKYVYLNKYLGDVNNVKVVYGPAARLRPTDVPETYYSFNYEALAKNLSCREPNQHFRPYLKPFLPKRLHFAKSDRIEPLTFYLDPQWQLALNPSERKYCGSGFHGSDNLFSNMQALFIGYGPAFKHGAEVDSFENIEVYNLMCDLLGLIPAPNNGSHGSLNHLLKKPIYNPSHPKEEGFLSQCPIKSTSNDLGCTCDPWIVPIKDFEKQLNLTTEDVDDIYHMTVPYGRPRILLKQHHVCLLQQQQFLTGYSLDLLMPLWASYTFLRNDQFSRDDFSNCLYQDLRIPLSPVHKCSYYKSNSKLSYGFLTPPRLNRVSNHIYSEALLTSNIVPMYQSFQVIWHYLHDTLLQRYAHERNGINVVSGPVFDFDYDGRYDSLEILKQNSRVIRSQEILIPTHFFIVLTSCKQLSETPLECSALESSAYILPHRPDNIESCTHGKRESSWVEELLTLHRARVTDVELITGLSFYQDRQESVSELLRLKTHLPIFSQED
As for B2, in test [1], the “Predicted effect on PPi, Extracellular” value is recorded as “⇑”; the “Predicted effect on PPi, Intracellular” value is “⇑”; the “Predicted effect … PC-1” value was “↓”; the “Predicted effect … TNAP” value is “⇑”.

B3: TNAP: factor expressed in wild-type osteoblastic cells by transfecting the cDNA (Table 1) (protein)
chain: FVPEKERDPSYWRQQAQETLKNALKLQKLNTNVAKNVIMFLGDGMGVSTVTAARILKGQLHHNTGEETRLEMDKFPFVALSKTYNTNAQVPDSAGTATAYLCGVKANEGTVGVSAATERTRCNTTQGNEVTSILRWAKDAGKSVGIVTTTRVNHATPSAAYAHSADRDWYSDNEMPPEALSQGCKDIAYQLMHNIKDIDVIMGGGRKYMYPKNRTDVEYELDEKARGTRLDGLDLISIWKSFKPRHKHSHYVWNRTELLALDPSRVDYLLGLFEPGDMQYELNRNNLTDPSLSEMVEVALRILTKNLKGFFLLVEGGRIDHGHHEGKAKQALHEAVEMDQAIGKAGAMTSQKDTLTVVTADHSHVFTFGGYTPRGNSIFGLAPMVSDTDKKPFTAILYGNGPGYKVVDGERENVSMVDYAHNNYQAQSAVPLRHETHGGEDVAVFAKGPMAHLLHGVHEQNYIPHVMAYASCIGANLDHCAWAG
As to B3, in test [1], the “Predicted effect on PPi, Extracellular” value was “↓”; the “Predicted effect on PPi, Intracellular” value is on record as “↓”; the “Predicted effect on mRNA expression, ANK” value is “⇑”; the “Predicted effect … PC-1” value is reported as “⇑”.

B4: heat-inactivated recombinant TNAP: heat-inactivated recombinant TNAP (protein, UniProt P05186 18-501, looked up)
Alkaline phosphatase, …: LVPEKEKDPKYWRDQAQETLKYALELQKLNTNVAKNVIMFLGDGMGVSTVTAARILKGQLHHNPGEETRLEMDKFPFVALSKTYNTNAQVPDSAGTATAYLCGVKANEGTVGVSAATERSRCNTTQGNEVTSILRWAKDAGKSVGIVTTTRVNHATPSAAYAHSADRDWYSDNEMPPEALSQGCKDIAYQLMHNIRDIDVIMGGGRKYMYPKNKTDVEYESDEKARGTRLDGLDLVDTWKSFKPRYKHSHFIWNRTELLTLDPHNVDYLLGLFEPGDMQYELNRNNVTDPSLSEMVVVAIQILRKNPKGFFLLVEGGRIDHGHHEGKAKQALHEAVEMDRAIGQAGSLTSSEDTLTVVTADHSHVFTFGGYTPRGNSIFGLAPMLSDTDKKPFTAILYGNGPGYKVVGGERENVSMVDYAHNNYQAQSAVPLRHETHGGEDVAVFSKGPMAHLLHGVHEQNYVPHVMAYAACIGANLGHCAPAS
modifications: heat-inactivated
Consider B4, for which, in the test with TNAP ko osteoblasts, the induction of mineralization entry is “neither heat-inactivated recombinant TNAP, nor enzymatically inactive mutants of TNAP, such as [R54C]TNAP or [V365I]TNAP, were able to induce mineralization”.
